Molecular target: SARS-CoV nucleocapsid protein, recombinant (SARS-CoV, UniProt P59595 1-422)
Experiment: SPR

Sequence of SARS-CoV nucleocapsid protein, recombinant (P59595 whole entry): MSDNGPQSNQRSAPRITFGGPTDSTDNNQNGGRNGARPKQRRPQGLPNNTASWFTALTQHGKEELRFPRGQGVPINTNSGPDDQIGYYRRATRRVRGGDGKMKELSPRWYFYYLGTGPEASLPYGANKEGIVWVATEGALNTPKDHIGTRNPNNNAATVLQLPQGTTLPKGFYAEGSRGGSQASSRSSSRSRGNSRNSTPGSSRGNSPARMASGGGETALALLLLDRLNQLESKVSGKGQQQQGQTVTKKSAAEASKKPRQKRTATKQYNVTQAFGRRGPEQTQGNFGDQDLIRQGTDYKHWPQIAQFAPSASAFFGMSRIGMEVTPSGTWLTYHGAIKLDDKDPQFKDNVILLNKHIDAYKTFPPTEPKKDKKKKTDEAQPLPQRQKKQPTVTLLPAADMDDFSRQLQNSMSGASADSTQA

B1: P301-F7 (antibody, V domains shown)
VH: QLQLQESGPGLVKPSETLSLTCTVSGGSISSTSYYWGWIRQPPGKGLEWIGSIYYSGSTYYNPSLKSRVTISVDTSKNQFSLKLSSVTAADTAVYYCARFSLYCSSTSCYENWFDPWGQGTLVTVSS
VL: QSVLTQPPSVSAAPGQKVTISCSGSSSNIGNNYVSWYQQLPGTAPKLLIYDNNKRPSGIPDRFSGSKSGTSATLGITGLQTGDEADYYCGTWDSSLSAGQVVFGGGTKLTVL
Q: With B1 as the binder, how does the Kd read?
A: 33.4 nM
